Laboratory results from publication PMC11592157, “Exploring the Biological Activity of a Humanized Anti-CD99 ScFv and Antibody for Targeting T Cell Malignancies” (Biomolecules, 2024).
Where no end group is shown, it is not given here. The star is where a group is joined. Biotin = O=C1N[C@H]2[C@H](CS[C@H]2CCCCC(=O)*)N1; Ahx = NCCCCCC(=O)O

How the values were obtained:
CD99ExhIgG = biological target: T1, CD99ExhIgG (Homo sapiens, UniProt P14209); experiment: ELISA; indirect ELISA; CD99ExhIgG (or CD147Rg as negative control) coated on the plate at 4 °C overnight; purified HuScFvMT99/3 (HIS6X) at 1, 5 and 10 ug/mL, room temperature 1 h; detected with HRP anti-His tag antibody; conditions: both partners purified
T1 construct: extracellular part of human CD99; also called CD99ExIgG; recombinant CD99ExhIgG; source: HEK293T stably expressing, culture supernatant, purified (HiTrap Protein G)
T1 sequence (P14209 23-122): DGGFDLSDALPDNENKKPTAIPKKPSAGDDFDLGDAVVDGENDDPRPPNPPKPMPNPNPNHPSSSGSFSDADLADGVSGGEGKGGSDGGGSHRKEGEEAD

[1] = biological target: T2, CD99 peptide number 6 (Biotin-Ahx-AVVDGENDDPRPPNP) (human); experiment: BLI
T2 peptide: {Biotin-Ahx}-AVVDGENDDPRPPNP

[2] = biological target: T3, CD99 peptide number 6 (Biotin-Ahx-AVVDGENDDPRPPNP) (Homo sapiens); experiment: BLI; Biotin-Ahx-AVVDGENDDPRPPNP (10 ug/mL) loaded on streptavidin biosensors; antibody 0.625 to 10 ug/mL in PBS with 0.05% Tween 20; Octet K2; conditions: both partners purified
T3 construct: stretch of human CD99
T3 chain: {Biotin-Ahx}-AVVDGENDDPRPPNP

B1: HuScFvMT99/3 (HIS6X) (scFv, V domains shown)
VH: QVQLQESGPGLVKPSETLSLTCTLSGFNIKDTYIHWVRQPPGKGLEWIGRIDPGNGNIKYDPKFQGRATISADTSKNQVSLNLDSVSAADTAIYYCARSGGYDFDYWGKGSTVTVSS
VL: VQMTQSPSSLSASVGDRVTITCRSSQSLVHSNGNTYLHWYQQKPGKAPKLLIYTVSNRFSGVPSRFSGSGSGTDFTFTISSLQPEDIATYFCSQSTYVPYTFGPGTKVDIK
notes: V-KAPPA domain of HuScFvMT99/3; linker of the ScFvkh format (V-KAPPA-linker-VH); VH domain of HuScFvMT99/3; order V-KAPPA-linker-VH; cloned NdeI/XhoI into pET-21a; also called humanized single-chain Fv MT99/3; humanized ScFv variant of mAb MT99/3; source: E. coli Origami B (DE3), purified (Ni-NTA agarose); not shown: His6, C-terminal, kept
- binding result (CD99ExhIgG): binds

B2: mouse anti-CD99 monoclonal antibody MT99/3 (antibody, V domains shown)
VH: VQLQQSGAELVKPGASVRLSCTLSGFNIKDTYIHWVNQRPEQGLEWIGRIDPGNGNIKYDPKFQGKATITADTSSNKVYLHLSSLTSEDTAVYYCARSGGYDFDYWGQGTTLTVSS
VL: DVVMTQTPLSLPVSLGYQVSISCRSSQSLVHSNGNTYLHWYLQKPGQSPKLLIYTVSNRFSGVPDRFSGSGSGTDFTLKISRVEAEDLGVYFCSQSTYVPYTFGGGTKLEKK
notes: mouse IgG heavy constant region; Parent antibody of m1 and m2; also called mAb MT99/3; mouse MT99/3
- koff [1]: 8.06e-05 s⁻¹
- Kd [2]: 0.316 nM
